Measurements as given in patent US20250057965A1, “PEPTIDE OLIGONUCLEOTIDE CONJUGATES” (Sarepta Therapeutics, Inc., priority 2015, published 2025).
Several values for one entry are separate records, joined by “and”; a condition that tells them apart may be missing. Equal entries are not always repeated.

What was measured:
[1] = Individual body weights in dose response study; format: in vivo, Mouse (mdx); details: mdx mice
Description: (§1) Any animal showing signs of distress, particularly if death appeared imminent was humanely euthanized according to Numira Biosciences Standard Operating Procedures. Body weights were recorded on the day after arrival, the day of dosing, and the day of necropsy. Detailed clinical observations were conducted and recorded at 0 minutes, 15 minutes, and 2 hours post-dose to assess tolerability of injections.

[2] = Maximum tolerated dose (MTD) study in mdx mice: survival and in-life observations; format: in vivo, Mouse (mdx); details: for MTD % Survival / MTD in-life observations: n=3
Description: The maximum tolerated dose (MTD) of selected peptide-oligomer-conjugates of the disclosure was determined in mice according to the regimens shown in Table 8. […] PPMO-5 has a MTD>200 mg/kg.
Importantly, the toxicity of a peptide-oligomer-conjugate can be described in two phases: t1 and t2. t1 refers to rapid death, or death within 48 hours, most likely due to cardiopulmonary collapse. t2 refers to chronic kidney toxicity, observed with a peptide-oligomer-conjugate after multiple weekly doses. The MTD measurements described herein refer to ti toxicity (48 hour endpoint).

[3] = Animal health / clinical observations in dose response study; format: in vivo
Description: (§2) The day of dosing on the study was designated as Study Day 1. Each peptide-oligomer-conjugate was vortexted for approximately 10 seconds prior to dosing, and administered via tail vein as a slow push bolus (˜5 seconds; 200 μL). Dosing was performed over two days. All animals receiving the same peptide-oligomer-conjugate were dosed on the same day. […] Any remaining spare animals were necropsied and tissues collected as specified below.
as §1
Animals unlikely to survive until the next scheduled observation were weighed and euthanized. Animals found dead were weighed and the time of death was estimated as closely as possible. Blood and tissue samples were not collected.
The partial gross necropsy included examination and documentation of findings. All external surfaces and orifices were evaluated. All abnormalities observed during the collection of the tissues listed below were described completely and recorded. No additional tissues were taken.

[4] = design: species or system Mouse (mdx); details: mouse, in vivo
Excerpt: BUN levels are increased when compared to PPMO-8.

[5] = tested on: dystrophin exon 23; test: Dose response for efficacy in mdx mice: % exon 23 skipping by nested RT-PCR; format: in vivo, Mouse (mdx); details: for % Exon 23 Skip (Average), Diaphragm / % Exon 23 Skip (Average), Heart / % Exon 23 Skip (Average), Quadricep (L): mdx mice, 7 days post-dose, n=5
Excerpt: The aim of this study was to compare efficacy of peptide-oligomer-conjugates of the disclosure in a dose response study in mice. The spacing between the peptide and PMO modulates efficacy. Accordingly, PEG lengths of 3, 4, and 8 were used to systematically increase spacing between Ac-R6-Gly (SEQ ID NO:1) and the PMO. Additionally, an all-D amino acid version of Ac-R6-Gly (SEQ ID NO:1) and Ac-R6-Apa (SEQ ID NO:4) (4-amino phenyl acetic acid; aromatic, hydrophobic linker) were used (Table 2).
Selected peptide-oligomer-conjugates that were tested are listed in Table 2 (the peptide-oligomer-conjugates were formulated in saline and stored at 5° C.).
Animals were randomized into treatment groups based on cage weights as specified in Table 4.
as §2
On day 8 (7 days post-dose), all animals, including any untreated or spare animals, were humanely euthanized with carbon dioxide. Euthanasia was performed in accordance with accepted American Veterinary Medical Association (AVMA) guidelines on Euthanasia, June 2007.
Tissues were collected within 15 minutes or less of euthanasia. All instruments and tools used were changed between treatment groups. All tissues were flash frozen and stored at a temperature lower than −70° C. as soon as possible after collection. The following tissues were collected: liver, kidneys, heart, quads, and diaphragm.
RNA from mouse quadriceps, heart, and diaphragm tissue was purified using GE Illustra RNAspin 96 well extraction kits. Briefly, 400 μL of lysis buffer (RA1+1% 2-mercaptoethanol was added to about 20-30 mg of frozen tissue in a plate with zirconia beads (Biospec) and homogenized using GenoGrinder (Spex Sample Prep) at 4×8 minutes at 1750 RPM; cooling between each run. The homogenate was immediately processed for RNA purification according to the GE RNAspin Illustra 96 well protocol. Total RNA was quantitated with a Nanodrop 2000 spectrophotometer (ThermoScientific).
RNA was analyzed by a classic nested PCR reaction. RT-PCR reagents were from Invitrogen unless otherwise specified. PCR reactions were run in a CFX96 or S1000 thermocycler (BioRad). Final cDNA products were separated on a NuPage 10% TBE gel (Invitrogen) run at 200V, 1 hr at room temperature. Gels were scanned with a Typhoon Trio (GE Healthcare) using a 670 BP 30 Cy5 emission filter and analyzed with ImageQuant software.
Primers used for PCR analysis were as follows: dystrophin outer forward (5′-[…]-3′; SEQ ID NO:9), dystrophin outer reverse (5′-[…]-3′; SEQ ID NO:10), dystrophin inner forward (5′-[…]-3′; SEQ ID NO:11), and dystrophin inner reverse (5′-[…]-3′; SEQ ID NO:12).

[6] = 5 mg/kg single i.v., day 8, one value per animal, 5 mg/kg
[7] = 10 mg/kg single i.v., day 8, one value per animal, 10 mg/kg
[8] = 20 mg/kg single i.v., day 8, one value per animal, 20 mg/kg
[9] = 40 mg/kg single i.v., day 8, one value per animal (FD = found dead), 40 mg/kg
[10] = 80 mg/kg single i.v., day 8, one value per animal, 80 mg/kg
[11] = 100 mg/kg single i.v. injection
[12] = 150 mg/kg single i.v. injection
[13] = 200 mg/kg single i.v. injection

Molecule: CC(=O)N[C@@H](CCCNC(=N)N)C(=O)N[C@@H](CCCNC(=N)N)C(=O)N[C@@H](CCCNC(=N)N)C(=O)N[C@@H](CCCNC(=N)N)C(=O)N[C@@H](CCCNC(=N)N)C(=O)N[C@@H](CCCNC(=N)N)C(=O)NCC(=O)N1CCN(C(=O)OCCOCCOCCOC(=O)N2C[C@@H](COP(=O)(N(C)C)N3C[C@@H](COP(=O)(N(C)C)N4C[C@@H](COP(=O)(N(C)C)N5C[C@@H](COP(=O)(N(C)C)N6C[C@@H](COP(=O)(N(C)C)N7C[C@@H](COP(=O)(N(C)C)N8C[C@@H](COP(=O)(N(C)C)N9C[C@@H](COP(=O)(N(C)C)N%10C[C@@H](COP(=O)(N(C)C)N%11C[C@@H](COP(=O)(N(C)C)N%12C[C@@H](COP(=O)(N(C)C)N%13C[C@@H](COP(=O)(N(C)C)N%14C[C@@H](COP(=O)(N(C)C)N%15C[C@@H](COP(=O)(N(C)C)N%16C[C@@H](COP(=O)(N(C)C)N%17C[C@@H](COP(=O)(N(C)C)N%18C[C@@H](COP(=O)(N(C)C)N%19C[C@@H](COP(=O)(N(C)C)N%20C[C@@H](COP(=O)(N(C)C)N%21CCN(C(=O)OCCOCCOCCO)CC%21)O[C@@H](n%21cnc%22c(=O)[nH]c(N)nc%22%21)C%20)O[C@@H](n%20ccc(N)nc%20=O)C%19)O[C@@H](n%19cc(C)c(=O)[nH]c%19=O)C%18)O[C@@H](n%18cnc%19c(N)ncnc%19%18)C%17)O[C@@H](n%17cc(C)c(=O)[nH]c%17=O)C%16)O[C@@H](n%16cc(C)c(=O)[nH]c%16=O)C%15)O[C@@H](n%15cnc%16c(N)ncnc%16%15)C%14)O[C@@H](n%14ccc(N)nc%14=O)C%13)O[C@@H](n%13ccc(N)nc%13=O)C%12)O[C@@H](n%12cc(C)c(=O)[nH]c%12=O)C%11)O[C@@H](n%11cc(C)c(=O)[nH]c%11=O)C%10)O[C@@H](n%10cnc%11c(N)ncnc%11%10)C9)O[C@@H](n9cnc%10c(N)ncnc%109)C8)O[C@@H](n8ccc(N)nc8=O)C7)O[C@@H](n7ccc(N)nc7=O)C6)O[C@@H](n6ccc(N)nc6=O)C5)O[C@@H](n5cnc6c(N)ncnc65)C4)O[C@@H](n4cnc5c(=O)[nH]c(N)nc54)C3)O[C@@H](n3cc(C)c(=O)[nH]c3=O)C2)CC1 (stereo partly drawn) [PPMO-4]
- Individual body weight, pre-necropsy [1, 6]: 21.45 g and 22.61 g and 19.15 g and 19.6 g and 21.53 g
- Individual body weight, pre-necropsy [1, 7]: 19.41 g and 21.91 g and 18.98 g and 20.43 g and 20.49 g
- Individual body weight, pre-necropsy [1, 8]: 20.09 g and 21.25 g and 22.62 g and 20.71 g and 17.08 g
- Individual body weight, pre-necropsy [1, 9]: 20.59 g and 18.25 g and 22.63 g and 21.35 g and 21.22 g
- Individual body weight, pre-necropsy [1, 10]: 23.86 g and 17.9 g and 21.36 g and 21.1 g and 20.69 g
- MTD % Survival ([2]; 50 mg/kg single i.v. injection): 100%
- MTD % Survival [2, 11]: 100%
- MTD in-life observations ([2]; 100 mg/kg single i.v.): 3/3 slow to recover at 15 min., ok by 2 hours
- MTD % Survival [2, 12]: 100%
- MTD in-life observations ([2]; 150 mg/kg single i.v.): 3/3 lethargic at 15 min., ok by 2 hours
- MTD % Survival [2, 13]: 0%
- MTD in-life observations ([2]; 200 mg/kg single i.v.): 3/3 lethargic at 15 min and 2 hours, 3/3 dead at 24 hours
- Animal health observation ([3]; 5 mg/kg, at necropsy, animal 2406): right eye closed and had a white substance exuding from it
- Animal health observation ([3]; 40 mg/kg single i.v.): slow to recover at the 15 minute observation but recovered by the 2 hour observation
- Animal health observation ([3]; 80 mg/kg single i.v.): slow to recover at the 15 minute observation but recovered by the 2 hour observation

Molecule: Ac-dR6-G (all-D amino acid R) (SEQ ID NO: 8) (RRRRRRG; N-acetyl; all-D amino acids; SITE 1 acetylation of N terminus; SITE 1..6 D-Arginine) [PPMO-7]
- Individual body weight, pre-necropsy [1, 6]: 22.3 g and 22.46 g and 23.21 g and 21.43 g and 23.41 g
- Individual body weight, pre-necropsy [1, 7]: 17.85 g and 22.7 g and 23.56 g and 21.97 g and 21.8 g
- Individual body weight, pre-necropsy [1, 8]: 20.85 g and 20.17 g and 21.1 g and 21.38 g and 24.55 g
- Individual body weight, pre-necropsy [1, 9]: 22.58 g and 22.21 g and 21.29 g and 18.19 g and 20.93 g
- Individual body weight, pre-necropsy [1, 10]: 21.98 g and 22.63 g and 19.65 g and 19.9 g and 22.86 g
- MTD % Survival ([2]; 50 mg/kg single i.v. injection): 100%
- MTD % Survival [2, 11]: 100%
- MTD in-life observations ([2]; 100 mg/kg single i.v.): 3/3 slow to recover at 15 min., ok by 2 hours
- MTD % Survival [2, 12]: 100%
- MTD in-life observations ([2]; 150 mg/kg single i.v.): 3/3 slow to recover at 15 min., ok by 2 hours
- MTD % Survival [2, 13]: 33%
- MTD in-life observations ([2]; 200 mg/kg single i.v.): 2/3 dead at 15 minutes, 1/3 lethargic at 15 min and 2 hours
- Tolerability ([2]; MTD study, in words): not well-tolerated
- Liver and kidney serum chemistry markers [4]: increased liver and kidney serum chemistry markers
- Efficacy (% exon 23 skipping), in words ([5]; comparison with other conjugates / linkers): improved efficacy
- % Exon 23 Skip (Average), Diaphragm ([5]; 5 mg/kg single i.v. injection): 1%
- % Exon 23 Skip (Average), Heart ([5]; 5 mg/kg single i.v. injection): 0%
- % Exon 23 Skip (Average), Quadricep (L) ([5]; 5 mg/kg single i.v. injection): 4%
- % Exon 23 Skip (Average), Diaphragm ([5]; 10 mg/kg single i.v. injection): 6%
- % Exon 23 Skip (Average), Heart ([5]; 10 mg/kg single i.v. injection): 2%
- % Exon 23 Skip (Average), Quadricep (L) ([5]; 10 mg/kg single i.v. injection): 11%
- % Exon 23 Skip (Average), Diaphragm ([5]; 20 mg/kg single i.v. injection): 30%
- % Exon 23 Skip (Average), Heart ([5]; 20 mg/kg single i.v. injection): 13%
- % Exon 23 Skip (Average), Quadricep (L) ([5]; 20 mg/kg single i.v. injection): 53%
- % Exon 23 Skip (Average), Diaphragm ([5]; 40 mg/kg single i.v. injection): 67%
- % Exon 23 Skip (Average), Heart ([5]; 40 mg/kg single i.v. injection): 42%
- % Exon 23 Skip (Average), Quadricep (L) ([5]; 40 mg/kg single i.v. injection): 89%
- % Exon 23 Skip (Average), Diaphragm ([5]; 80 mg/kg single i.v. injection): 93%
- % Exon 23 Skip (Average), Heart ([5]; 80 mg/kg single i.v. injection): 93%
- % Exon 23 Skip (Average), Quadricep (L) ([5]; 80 mg/kg single i.v. injection): 92%
